Consider three molecules from patent US20190389958A1, “ANTI-CXCR4 ANTIBODIES” (MSM Protein Technologies, Inc., priority 2017, published 2019).

The target in one assay is T1, hCCR7 (Homo sapiens, UniProt P32248).
T1 construct: expressed in transfected cells
T1 sequence (P32248 25-378): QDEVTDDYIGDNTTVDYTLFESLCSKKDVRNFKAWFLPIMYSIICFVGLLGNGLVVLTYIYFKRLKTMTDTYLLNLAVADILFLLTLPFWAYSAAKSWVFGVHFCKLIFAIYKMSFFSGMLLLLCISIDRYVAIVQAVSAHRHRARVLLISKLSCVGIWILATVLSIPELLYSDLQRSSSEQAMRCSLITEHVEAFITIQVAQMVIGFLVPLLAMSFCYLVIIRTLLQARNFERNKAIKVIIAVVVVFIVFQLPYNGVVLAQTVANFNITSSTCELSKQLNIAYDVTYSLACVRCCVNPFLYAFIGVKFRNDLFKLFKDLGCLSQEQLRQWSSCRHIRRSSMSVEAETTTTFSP
Kind of assay: Specificity for CXCR4, flow cytometry on GPCR over-expressing cells (Example 6). The class given is binding. The conditions noted are these: cell line hCCR7; test IgG at 100 nM. Here is the method: (§1) Cells over-expressing different GPCRs other than CXCR4 and several lines transfected to over-express CXCR4 (R1610-hCXCR4, Cf2Th-hCXCR4 and CHO-hCXCR4) were compared. Cultures were incubated with a test IgG at 100 nM in FACS buffer for 40 min at 4° C. Thereafter, cells were washed twice, stained with anti-human-Fc antibody-PE conjugate (Jackson Immunoresearch Laboratories Inc., West Grove, Pa.), washed twice in FACS buffer and then transferred to FIX buffer. Fluorescence intensities were measured by GUAVA PCA-96 at 425V (in triplicate).
(§2) The expression of GPCRs other than CXCR4 was confirmed using commercially available antibodies (positive controls). For example, a commercial anti-CXCR1 antibody was used as a positive control for confirming the expression of CXCR1 on the CXCR1-transfected CHO cells.

The subject of a further assay is RA1 cells. Kind of assay: Antibody-dependent cell-mediated cytotoxicity (ADCC), LDH release (Example 10). In kind it is cell-based, human. The conditions noted are these: E:T ratio 20:1. Here is the method: ADCC was measured with RA1 cells as the target cells (T) and using the CytoTox 96® Non-Radioactive Cytotoxicity Assay (Promega Corp., Fitchburg, Wis.)), which assay measures lactate dehydrogenase (LDH) release. A round-bottom 96-well culture plate was set up with the following control and experimental wells (100 microliter final volumes):
a. RA1 cells (for target cell spontaneous LDH release control) b. RA1 cells (for target cell maximum LDH release control) c. Culture medium (RPMI 1640 Medium (1X) without phenol red) used for volume correction control d. Culture medium (for culture medium background control) e. RA1 plus effector cells (E) (for target plus effector cell spontaneous LDH release control) f. Experimental wells with effector and target cells (10^5) with serial dilutions of each test IgG or without test IgG.
The plates were centrifuged at 1600 rpm for 2 minutes and incubated at 37° C. for 4 hours. One hour prior to supernatant harvest, 20 microliters of Lysis Solution (10×) were added to the conditions b) and c). The plates were centrifuged at 1600 rpm for 2 minutes, and 50 microliters of the supernatant from each well of the assay plates were transferred to corresponding wells of a flat-bottom 96-well enzymatic assay plate. Substrate Mix (50 microliters) was added to each well of the latter plate, and the plate (protected from light) was incubated for 30 minutes at room temperature. Finally, 50 microliters of Stop Solution were added to each well, and absorbance (OD values) was measured at 490 nm. Each condition was tested in triplicates.
Preliminary experiments had been conducted in order to determine the optimal E:T ratio. The data shown below were obtained at a 20:1 E:T ratio with 10^5 RA1 target cells. The effector cells used in this study were prepared as follows: human peripheral blood mononuclear cells (PBMCs) obtained from a healthy donor were isolated by means of density gradient centrifugation using Lymphocyte Separation Medium (ref. J15-004, Invitrogen Corp., Carlsbad, Calif.). PBMCs at 2×10^6 per mL were cultured for two days in RPMI 1640 with 10% FCS, penicillin/streptomycin and 100 units per mL of human recombinant IL-2 (obtained from Roussel-Uclaf) in a 37° C. humidified incubator (5% CO2).
ADCC percentages obtained at different concentrations of test IgGs were calculated with the formula % ADCC=(f−e)/(b−a)×100, i.e., % ADCC=(OD of Target+Effector cells +/−Test Mab −OD of Spontaneous Release of Target+Effector cells)/(OD Maximal Release Target cells −OD Spontaneous Release of Target cells)×100.

Another assay deals with T2, hCCR3 (Homo sapiens, UniProt P51677).
T2 construct: expressed in transfected cells
T2 sequence (P51677 1-355): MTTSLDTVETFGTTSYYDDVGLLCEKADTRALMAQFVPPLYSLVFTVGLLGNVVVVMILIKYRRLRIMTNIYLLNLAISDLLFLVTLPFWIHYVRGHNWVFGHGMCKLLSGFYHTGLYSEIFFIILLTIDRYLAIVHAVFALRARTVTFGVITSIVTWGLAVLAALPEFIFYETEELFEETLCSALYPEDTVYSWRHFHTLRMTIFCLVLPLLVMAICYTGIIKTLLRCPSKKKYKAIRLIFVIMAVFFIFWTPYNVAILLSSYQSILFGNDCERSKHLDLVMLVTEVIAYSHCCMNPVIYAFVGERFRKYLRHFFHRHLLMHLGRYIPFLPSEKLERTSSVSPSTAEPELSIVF
Nature of the assay: Specificity for CXCR4, flow cytometry on GPCR over-expressing cells (Example 6). The class given is binding. The note with it: cell line hCCR3; test IgG at 100 nM. Here is the method: as §1, §2

B1: V62.1-R108H-m80: matured anti-CXCR4 antibody; LCVR SEQ ID NO 13, HCVR SEQ ID NO 19 (antibody, V domains shown)
VH: EVQLLESGGGLVQPGGSLRLSCAASGFTISPYSITWVRQAPGKGLEWVSQINSYNGKTYYADSVKGRFTISRDNSKNTLYLQMNSLRAEDTAVYYCARQGKTRVYGYHWHGYGSTHALDYWGQGTLVTVSS
VL: EIVLTQSPGTLSLSPGERATLSCRASQSVSSSYLAWYQQKPGQAPRLLIYGASSRATGIPDRFSGSGSGTDFTLTISRLEPEDFAVYYCQQSDYSYPFTFGQGTKVEIKRT
modifications: heavy chain variable region HCVR, variant 5; light chain variable region LCVR, variant 1
As for B1, the MFI with hCCR7 came out at 25. The ADCC percentage is reported as 9% with RA1 cells (0.0001 μg/mL); 16% in the assay with RA1 cells (0.001 μg/mL); 45% in the assay on RA1 cells (0.01 μg/mL); 59% in the assay with RA1 cells (0.1 μg/mL); 55% in the assay with RA1 cells (1 μg/mL).

B2: V62.1-R108H-m47-m38: matured anti-CXCR4 antibody; LCVR SEQ ID NO 14, HCVR SEQ ID NO 18 (antibody, V domains shown)
VH: EVQLLESGGGLVQPGGSLRLSCAASGFTFSSYAMSWVRQAPGKGLEWVSAISGSGGTRYADSVKGRFTISRDNSKNTLYLQMNSLRAEDTAVYYCARQGKTRVYGYHWHGYGSTHALDYWGQGTLVTVSS
VL: EIVLTQSPGTLSLSPGERATLSCRASQSVSSSYLAWYQQKPGQAPRLLIYGASSRATGIPDRFSGSGSGTDFTLTISRLEPEDFAVYYCQQWSSDSVTFGQGTKVEIKRT
modifications: heavy chain variable region HCVR, variant 4; light chain variable region LCVR, variant 2
Regarding B2, the MFI in the assay with hCCR3 is on record as 40. For the same molecule, the ADCC percentage was found to be 14% in the assay on RA1 cells (0.0001 μg/mL); 36% in the assay with RA1 cells (0.001 μg/mL); 50% in the assay with RA1 cells (0.01 μg/mL); 51% in the assay with RA1 cells (0.1 μg/mL); 55% with RA1 cells (1 μg/mL).

B3: V62.1-R108H-m43-m38: matured anti-CXCR4 antibody; LCVR SEQ ID NO 14, HCVR SEQ ID NO 17 (antibody, V domains shown)
VH: EVQLLESGGGLVQPGGSLRLSCAASGFTFSSYAMSWVRQAPGKGLEWVSAISGSGGGSTRYADSVKGRFTISRDNSKNTLYLQMNSLRAEDTAVYYCARQGKTRVYGYHWHGYGSTHALDYWGQGTLVTVSS
VL: EIVLTQSPGTLSLSPGERATLSCRASQSVSSSYLAWYQQKPGQAPRLLIYGASSRATGIPDRFSGSGSGTDFTLTISRLEPEDFAVYYCQQWSSDSVTFGQGTKVEIKRT
modifications: heavy chain variable region HCVR, variant 3; light chain variable region LCVR, variant 2
On to B3, for which the ADCC percentage came to 8% with RA1 cells (0.0001 μg/mL); 19% in the assay with RA1 cells (0.001 μg/mL); 40% in the assay with RA1 cells (0.01 μg/mL); 42% in the assay on RA1 cells (0.1 μg/mL); 54% with RA1 cells (1 μg/mL).
